# Experimental data as given in PMC3082577.
# B1: Kv3.1: N220Q/N229Q (protein)
# parent chain: MGQGDESERIVINVGGTRHQTYRSTLRTLPGTRLAWLAEPDAHSHFDYDPRADEFFFDRHPGVFAHILNYYRTGKLHCPADVCGPLYEEELAFWGIDETDVEPCCWMTYRQHRDAEEALDSFGGAPLDNSADDADADGPGDSGDGEDELEMTKRLALSDSPDGRPGGFWRRWQPRIWALFEDPYSSRYARYVAFASLFFILVSITTFCLETHERFNPIVNKTEIENVRNGTQVRYYREAETEAFLTYIEGVCVVWFTFEFLMRVVFCPNKVEFIKNSLNIIDFVAILPFYLEVGLSGLSSKAAKDVLGFLRVVRFVRILRIFKLTRHFVGLRVLGHTLRASTNEFLLLIIFLALGVLIFATMIYYAERIGAQPNDPSASEHTHFKNIPIGFWWAVVTMTTLGYGDMYPQTWSGMLVGALCALAGVLTIAMPVPVIVNNFGMYYSLAMAKQKLPKKKKKHIPRPPQLGSPNYCKSVVNSPHHSTQSDTCPLAQEEILEINRADSKLNGEVAKAALANEDCPHIDQALTPDEGLPFTRSGTRERYGPCFLLSTGEYACPPGGGMRKDLCKESPVIAKYMPTEAVRVT
# B2: Kv3.1: N220Q (protein)
# parent chain: MGQGDESERIVINVGGTRHQTYRSTLRTLPGTRLAWLAEPDAHSHFDYDPRADEFFFDRHPGVFAHILNYYRTGKLHCPADVCGPLYEEELAFWGIDETDVEPCCWMTYRQHRDAEEALDSFGGAPLDNSADDADADGPGDSGDGEDELEMTKRLALSDSPDGRPGGFWRRWQPRIWALFEDPYSSRYARYVAFASLFFILVSITTFCLETHERFNPIVNKTEIENVRNGTQVRYYREAETEAFLTYIEGVCVVWFTFEFLMRVVFCPNKVEFIKNSLNIIDFVAILPFYLEVGLSGLSSKAAKDVLGFLRVVRFVRILRIFKLTRHFVGLRVLGHTLRASTNEFLLLIIFLALGVLIFATMIYYAERIGAQPNDPSASEHTHFKNIPIGFWWAVVTMTTLGYGDMYPQTWSGMLVGALCALAGVLTIAMPVPVIVNNFGMYYSLAMAKQKLPKKKKKHIPRPPQLGSPNYCKSVVNSPHHSTQSDTCPLAQEEILEINRADSKLNGEVAKAALANEDCPHIDQALTPDEGLPFTRSGTRERYGPCFLLSTGEYACPPGGGMRKDLCKESPVIAKYMPTEAVRVT
# B3: Kv3.1: N229Q (protein)
# parent chain: MGQGDESERIVINVGGTRHQTYRSTLRTLPGTRLAWLAEPDAHSHFDYDPRADEFFFDRHPGVFAHILNYYRTGKLHCPADVCGPLYEEELAFWGIDETDVEPCCWMTYRQHRDAEEALDSFGGAPLDNSADDADADGPGDSGDGEDELEMTKRLALSDSPDGRPGGFWRRWQPRIWALFEDPYSSRYARYVAFASLFFILVSITTFCLETHERFNPIVNKTEIENVRNGTQVRYYREAETEAFLTYIEGVCVVWFTFEFLMRVVFCPNKVEFIKNSLNIIDFVAILPFYLEVGLSGLSSKAAKDVLGFLRVVRFVRILRIFKLTRHFVGLRVLGHTLRASTNEFLLLIIFLALGVLIFATMIYYAERIGAQPNDPSASEHTHFKNIPIGFWWAVVTMTTLGYGDMYPQTWSGMLVGALCALAGVLTIAMPVPVIVNNFGMYYSLAMAKQKLPKKKKKHIPRPPQLGSPNYCKSVVNSPHHSTQSDTCPLAQEEILEINRADSKLNGEVAKAALANEDCPHIDQALTPDEGLPFTRSGTRERYGPCFLLSTGEYACPPGGGMRKDLCKESPVIAKYMPTEAVRVT
# Assays:
# Conditions in all cases: glycan lost; control: wild type
# [1] = whole cell patch clamp, noninactivating current type
# [2] = Western blot of purified Kv3.1
# [3] = whole cell patch clamp, current pattern classification
# [4] = whole cell patch clamp, 2 s pulse, +40 mV
# [5] = train of five +40 mV pulses, whole cell
# [6] = whole cell patch clamp, noninactivating current type, +40 mV
# [7] = whole cell patch clamp, inactivating current type
# [8] = whole cell patch clamp, inactivating current type, +40 mV
Protein,"other: channel current deactivation time constant, other: τoff [1]","other: channel current, G-V slope factor, other: dV [1]","other: channel current, voltage of half activation, other: V0.5 [1]",expression_or_secretion [2],"other: share of inactivating whole cell current type, other: % inactivating current type [3]","other: channel current remaining after 2 s pulse (inactivation), other: % current remaining [4]",other: peak current remaining after repetitive depolarization [5],"other: channel current activation time constant, other: τon [6]","other: channel current rise time, other: rise time [6]","other: channel current deactivation time constant, other: τoff [7]","other: channel current, G-V slope factor, other: dV [7]","other: channel current, voltage of half activation, other: V0.5 [7]","other: channel current activation time constant, other: τon [8]","other: channel current rise time, other: rise time [8]"
B1,"increases, 5.6±0.2 vs 3.6±0.1","no change, 18.7±0.5 vs 22.6±0.4","no change, 22.3±0.4 vs 28.1±0.7",no change,"increases, 68% vs 36%","increases, 62.3±3.1 vs 51.0±2.3",decreases,"increases, 7.4±1.2 vs 1.6±0.2","increases, 10.2±1.5 vs 3.5±0.2","increases, 6.0±0.3 vs 4.1±0.2","no change, 9.6±0.3 vs 10.5±0.5","no change, 8.1±0.6 vs 10.1±0.7","increases, 7.5±0.8 vs 4.0±0.3","increases, 15.9±1.5 vs 8.6±0.5"
B2,"no change, 4.0±0.3 vs 3.6±0.1","no change, 19.8±0.6 vs 22.6±0.4","no change, 30.7±0.6 vs 28.1±0.7",no change,"increases, 65% vs 36%","increases, 60.2±2.7 vs 51.0±2.3",–,"no change, 1.4±0.4 vs 1.6±0.2","no change, 3.2±0.4 vs 3.5±0.2","no change, 4.7±0.4 vs 4.1±0.2","no change, 9.9±0.4 vs 10.5±0.5","no change, 9.2±0.8 vs 10.1±0.7","no change, 5.3±1.0 vs 4.0±0.3","increases, 10.6±0.9 vs 8.6±0.5"
B3,"no change, 3.9±0.2 vs 3.6±0.1","no change, 24.3±0.6 vs 22.6±0.4","no change, 27.5±0.5 vs 28.1±0.7",no change,"no change, 29% vs 36%","increases, 64.8±4.1 vs 51.0±2.3",–,"no change, 1.2±0.1 vs 1.6±0.2","no change, 3.1±0.1 vs 3.5±0.2","increases, 5.1±0.2 vs 4.1±0.2","no change, 10.8±0.7 vs 10.5±0.5","no change, 13.1±0.8 vs 10.1±0.7","increases, 6.6±0.9 vs 4.0±0.3","increases, 12.7±1.6 vs 8.6±0.5"
